The source of these data is patent US20150203577A1 (Chugai, published 2015).

The target of assay [1] is T1, mouse FcγRII extracellular domain, C-terminally His-tagged (mouse, UniProt P08101 30-210).
T1 construct: the whole entry is named; also called mFcγRII; mFcgRII
T1 sequence: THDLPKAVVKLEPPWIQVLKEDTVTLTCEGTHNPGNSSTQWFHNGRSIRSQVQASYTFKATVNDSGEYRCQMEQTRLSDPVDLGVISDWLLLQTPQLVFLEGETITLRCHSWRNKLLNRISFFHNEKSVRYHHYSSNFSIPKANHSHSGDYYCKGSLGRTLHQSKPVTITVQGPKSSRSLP
The experiment in a line: SPR Biacore T200, KD ratio. The source says:
(§1) The antibody H chain variable region used was the variable region H237 (SEQ ID NO: 1) of the H chain VH3-IgG1 of the anti-IL-6 receptor antibody Fv4-IgG1 described in WO2009/125825. The antibody L chain commonly used was the L chain MRAL-k0 (SEQ ID NO: 2) of the anti-IL-6 receptor antibody tocilizumab. […] The resulting variant groups were designated as MB397 variants and MB390 variants, respectively. These variants were expressed and purified by the method of Reference Example 1 and evaluated for their binding to mFcγRII and mFcγRIII by the method of Reference Example 2 using Biacore T200.
(§2) Each altered antibody was analyzed for its interaction with each Fcγ receptor prepared above using Biacore T100 (GE Healthcare Japan Corp.), Biacore T200 (GE Healthcare Japan Corp.), Biacore A100, or Biacore 4000. The running buffer used was HBS-EP+ (GE Healthcare Japan Corp.). The assay temperature was set to 25° C. The sensor chips used were chips prepared by immobilizing Protein L (ACTIGEN or BioVision) onto Series S Sensor Chip CM5 (GE Healthcare Japan Corp.) or Series S Sensor Chip CM4 (GE Healthcare Japan Corp.) by the amine coupling method.
(§3) In order to calculate the KD value of each altered antibody for FcγR, kinetic analysis was conducted according to the following method: first, the antibody of interest was captured onto any of these chips and allowed to interact with mFcγR diluted with a running buffer. For the obtained sensorgram, the assay results were globally fit into the 1:1 Langmuir binding model using Biacore Evaluation Software to calculate an association rate constant ka (L/mol/s) and a dissociation rate constant kd (1/s). From these values, the dissociation constant KD (mol/L) was calculated.
For orientation: In SPR one partner is held on a chip, and binding of the other changes the refractive index at the surface.

Assay [2] has as its target T2, mouse FcγRIII extracellular domain, C-terminally His-tagged (mouse, UniProt P08508 31-215).
T2 construct: the whole entry is named; also called mFcγRIII; mFcgRIII
T2 chain: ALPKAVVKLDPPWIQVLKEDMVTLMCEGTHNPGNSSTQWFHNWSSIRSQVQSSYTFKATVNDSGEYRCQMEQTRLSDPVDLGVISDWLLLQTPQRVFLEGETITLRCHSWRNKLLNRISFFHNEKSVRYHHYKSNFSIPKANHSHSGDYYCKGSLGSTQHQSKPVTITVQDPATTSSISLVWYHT
The experiment in a line: SPR Biacore T200, KD ratio.
From the text: as §1, §2, §3

B1: H237-MB461/MRAL-k0 (antibody, mouse IgG1, kappa)
heavy: QVQLQESGPGLVKPSETLSLTCAVSGHSISHDHAWSWVRQPPGEGLEWIGFISYSGITNYNPSLQGRVTISRDNSKNTLYLQMNSLRAEDTAVYYCARSLARTTAMDYWGEGTLVTVSSAKTTPPSVYPLAPGSAAQTNSMVTLGCLVKGYFPEPVTVTWNSGSLSSGVHTFPAVLQSDLYTLSSSVTVPSSTWPSETVTCNVAHPASSTKVDKKIVPRDCGCKPCICETYEVEDVFIFPPKPKDVLTITLTPKVTCVVVDISKDDPEVQFSWFVDDVEVHTAQTQPREEQFNSTFRSVSELPIMHQDWLNGKEFKCRVNSAAFPAPIEKTIIKTKGRPKAPQVYTIPPPKEQMAKDKVSLTCMITDFFPEDITVEWQWNGQPAENYKNTQPIMDTDGSYFVYSKLNVQKSNWEAGNTFTCSVLHEGLHNHHTEKSLSHSPGK
light: not shown
notes: copies: 2 + 2
For the molecule B1, in assay [1], the “relative mFcγRII-binding activity (MB397 = 1)” value came out at 0.45 fold and the “relative mFcγRII-binding activity (mIgG1 = 1)” value stood at 247 fold. In addition, in assay [2], the “relative mFcγRIII-binding activity (MB397 = 1)” value is 0.97 fold and the “relative mFcγRIII-binding activity (mIgG1 = 1)” value stood at 18.8 fold.

B2: H237-MB465/MRAL-k0 (antibody, mouse IgG1, kappa)
heavy: QVQLQESGPGLVKPSETLSLTCAVSGHSISHDHAWSWVRQPPGEGLEWIGFISYSGITNYNPSLQGRVTISRDNSKNTLYLQMNSLRAEDTAVYYCARSLARTTAMDYWGEGTLVTVSSAKTTPPSVYPLAPGSAAQTNSMVTLGCLVKGYFPEPVTVTWNSGSLSSGVHTFPAVLQSDLYTLSSSVTVPSSTWPSETVTCNVAHPASSTKVDKKIVPRDCGCKPCICETYEVEDVFIFPPKPKDVLTITLTPKVTCVVVDISKDDPEVQFSWFVDDVEVHTAQTQPREELFNSTFRSVSELPIMHQDWLNGKEFKCRVNSAAFPAPIEKTISKTKGRPKAPQVYTIPPPKEQMAKDKVSLTCMITDFFPEDITVEWQWNGQPAENYKNTQPIMDTDGSYFVYSKLNVQKSNWEAGNTFTCSVLHEGLHNHHTEKSLSHSPGK
light: not shown
notes: copies: 2 + 2
Take B2: in assay [1], the “relative mFcγRII-binding activity (MB397 = 1)” value was 0.35 fold and the “relative mFcγRII-binding activity (mIgG1 = 1)” value was determined as 192 fold. For the same molecule, in assay [2], the “relative mFcγRIII-binding activity (MB397 = 1)” value was found to be 0.77 fold and the “relative mFcγRIII-binding activity (mIgG1 = 1)” value was 15 fold.

B3: H237-MB462/MRAL-k0 (antibody, mouse IgG1, kappa)
heavy: QVQLQESGPGLVKPSETLSLTCAVSGHSISHDHAWSWVRQPPGEGLEWIGFISYSGITNYNPSLQGRVTISRDNSKNTLYLQMNSLRAEDTAVYYCARSLARTTAMDYWGEGTLVTVSSAKTTPPSVYPLAPGSAAQTNSMVTLGCLVKGYFPEPVTVTWNSGSLSSGVHTFPAVLQSDLYTLSSSVTVPSSTWPSETVTCNVAHPASSTKVDKKIVPRDCGCKPCICETYEVEDVFIFPPKPKDVLTITLTPKVTCVVVDISKDDPEVQFSWFVDDVEVHTAQTQPREEQFNSTFRSVSELPIMHQDWLNGKEFKCRVNSAAFPAPIEKTIKKTKGRPKAPQVYTIPPPKEQMAKDKVSLTCMITDFFPEDITVEWQWNGQPAENYKNTQPIMDTDGSYFVYSKLNVQKSNWEAGNTFTCSVLHEGLHNHHTEKSLSHSPGK
light: not shown
notes: copies: 2 + 2
Regarding B3, in assay [1], the “relative mFcγRII-binding activity (MB397 = 1)” value stood at 0.39 fold and the “relative mFcγRII-binding activity (mIgG1 = 1)” value turned out to be 214 fold. In assay [2], the “relative mFcγRIII-binding activity (MB397 = 1)” value came out at 0.78 fold and the “relative mFcγRIII-binding activity (mIgG1 = 1)” value is 15.1 fold.

B4: H237-MB464/MRAL-k0 (antibody, mouse IgG1, kappa)
heavy: QVQLQESGPGLVKPSETLSLTCAVSGHSISHDHAWSWVRQPPGEGLEWIGFISYSGITNYNPSLQGRVTISRDNSKNTLYLQMNSLRAEDTAVYYCARSLARTTAMDYWGEGTLVTVSSAKTTPPSVYPLAPGSAAQTNSMVTLGCLVKGYFPEPVTVTWNSGSLSSGVHTFPAVLQSDLYTLSSSVTVPSSTWPSETVTCNVAHPASSTKVDKKIVPRDCGCKPCICETYEVEDVFIFPPKPKDVLTITLTPKVTCVVVDIAKDDPEVQFSWFVDDVEVHTAQTQPREEQFNSTFRSVSELPIMHQDWLNGKEFKCRVNSAAFPAPIEKTISKTKGRPKAPQVYTIPPPKEQMAKDKVSLTCMITDFFPEDITVEWQWNGQPAENYKNTQPIMDTDGSYFVYSKLNVQKSNWEAGNTFTCSVLHEGLHNHHTEKSLSHSPGK
light: not shown
notes: copies: 2 + 2
With B4, in assay [1], the “relative mFcγRII-binding activity (MB397 = 1)” value turned out to be 0.16 fold and the “relative mFcγRII-binding activity (mIgG1 = 1)” value was 88.5 fold. Moreover, in assay [2], the “relative mFcγRIII-binding activity (MB397 = 1)” value came out at 0.39 fold and the “relative mFcγRIII-binding activity (mIgG1 = 1)” value amounted to 7.6 fold.

B5: H237-MB477/MRAL-k0 (antibody, mouse IgG1, kappa)
heavy: QVQLQESGPGLVKPSETLSLTCAVSGHSISHDHAWSWVRQPPGEGLEWIGFISYSGITNYNPSLQGRVTISRDNSKNTLYLQMNSLRAEDTAVYYCARSLARTTAMDYWGEGTLVTVSSAKTTPPSVYPLAPGSAAQTNSMVTLGCLVKGYFPEPVTVTWNSGSLSSGVHTFPAVLQSDLYTLSSSVTVPSSTWPSETVTCNVAHPASSTKVDKKIVPRDCGCKPCICEPNEVEDVFIFPPKPKDVLTITLTPKVTCVVVDIAKDDPEVQFSWFVDDVEVHTAQTQPREEQFNSTFRSVSELPIMHQDWLNGKEFKCRVNSAAFPAPIEKTISKTKGRPKAPQVYTIPPPKEQMAKDKVSLTCMITDFFPEDITVEWQWNGQPAENYKNTQPIMDTDGSYFVYSKLNVQKSNWEAGNTFTCSVLHEGLHNHHTEKSLSHSPGK
light: not shown
notes: copies: 2 + 2
B5: in assay [1], the “relative mFcγRII-binding activity (MB390 = 1)” value was determined as 0.38 fold and the “relative mFcγRII-binding activity (mIgG1 = 1)” value came to 196 fold. For the same molecule, in assay [2], the “relative mFcγRIII-binding activity (MB390 = 1)” value stood at 0.25 fold and the “relative mFcγRIII-binding activity (mIgG1 = 1)” value came to 3 fold.

B6: H237-MB463/MRAL-k0 (antibody, mouse IgG1, kappa)
heavy: QVQLQESGPGLVKPSETLSLTCAVSGHSISHDHAWSWVRQPPGEGLEWIGFISYSGITNYNPSLQGRVTISRDNSKNTLYLQMNSLRAEDTAVYYCARSLARTTAMDYWGEGTLVTVSSAKTTPPSVYPLAPGSAAQTNSMVTLGCLVKGYFPEPVTVTWNSGSLSSGVHTFPAVLQSDLYTLSSSVTVPSSTWPSETVTCNVAHPASSTKVDKKIVPRDCGCKPCICETYEVEDVFIFPPKPKDVLTITLTPKVTCVVVDISKDDPEVQFSWFVDDVEVHTAQTQPREEQFNSTFRSVSELPIMHQDWLNGKEFKCRVNSAAFPAPIEKTIWKTKGRPKAPQVYTIPPPKEQMAKDKVSLTCMITDFFPEDITVEWQWNGQPAENYKNTQPIMDTDGSYFVYSKLNVQKSNWEAGNTFTCSVLHEGLHNHHTEKSLSHSPGK
light: not shown
notes: copies: 2 + 2
Consider B6, for which, in assay [1], the “relative mFcγRII-binding activity (MB397 = 1)” value is 0.55 fold and the “relative mFcγRII-binding activity (mIgG1 = 1)” value is 307 fold. Moreover, in assay [2], the “relative mFcγRIII-binding activity (MB397 = 1)” value was determined as 1.12 fold and the “relative mFcγRIII-binding activity (mIgG1 = 1)” value was found to be 21.6 fold.

B7: H237-MB466/MRAL-k0 (antibody, mouse IgG1, kappa)
heavy: QVQLQESGPGLVKPSETLSLTCAVSGHSISHDHAWSWVRQPPGEGLEWIGFISYSGITNYNPSLQGRVTISRDNSKNTLYLQMNSLRAEDTAVYYCARSLARTTAMDYWGEGTLVTVSSAKTTPPSVYPLAPGSAAQTNSMVTLGCLVKGYFPEPVTVTWNSGSLSSGVHTFPAVLQSDLYTLSSSVTVPSSTWPSETVTCNVAHPASSTKVDKKIVPRDCGCKPCICETYEVEDVFIFPPKPKDVLTITLTPKVTCVVVDISKDDPEVQFSWFVDDVEVHTAQTQPREEQFNSTFRSVSELPIMHQDWLNGKEFKCRVNSDAFPAPIEKTISKTKGRPKAPQVYTIPPPKEQMAKDKVSLTCMITDFFPEDITVEWQWNGQPAENYKNTQPIMDTDGSYFVYSKLNVQKSNWEAGNTFTCSVLHEGLHNHHTEKSLSHSPGK
light: not shown
notes: copies: 2 + 2
In the case of B7, in assay [1], the “relative mFcγRII-binding activity (MB397 = 1)” value amounted to 0.81 fold and the “relative mFcγRII-binding activity (mIgG1 = 1)” value came out at 449 fold. Moreover, in assay [2], the “relative mFcγRIII-binding activity (MB397 = 1)” value is 1.66 fold and the “relative mFcγRIII-binding activity (mIgG1 = 1)” value is 32 fold.

B8: H237-MB467/MRAL-k0 (antibody, mouse IgG1, kappa)
heavy: QVQLQESGPGLVKPSETLSLTCAVSGHSISHDHAWSWVRQPPGEGLEWIGFISYSGITNYNPSLQGRVTISRDNSKNTLYLQMNSLRAEDTAVYYCARSLARTTAMDYWGEGTLVTVSSAKTTPPSVYPLAPGSAAQTNSMVTLGCLVKGYFPEPVTVTWNSGSLSSGVHTFPAVLQSDLYTLSSSVTVPSSTWPSETVTCNVAHPASSTKVDKKIVPRDCGCKPCICETYEVEDVFIFPPKPKDVLTITLTPKVTCVVVDISKDDPEVQFSWFVDDVEVHTAQTQPREEQFNSTFRSVSELPIMHQDWLNGKEFKCRVNSAGFPAPIEKTISKTKGRPKAPQVYTIPPPKEQMAKDKVSLTCMITDFFPEDITVEWQWNGQPAENYKNTQPIMDTDGSYFVYSKLNVQKSNWEAGNTFTCSVLHEGLHNHHTEKSLSHSPGK
light: not shown
notes: copies: 2 + 2
Regarding B8, in assay [1], the “relative mFcγRII-binding activity (MB397 = 1)” value is 0.49 fold and the “relative mFcγRII-binding activity (mIgG1 = 1)” value was 271 fold. In addition, in assay [2], the “relative mFcγRIII-binding activity (MB397 = 1)” value is 0.99 fold and the “relative mFcγRIII-binding activity (mIgG1 = 1)” value was 19.2 fold.
